The labels stand for the following.
B1: Nanobody wt2D9 (initial hit) (VHH)
VHH: QVQLVESGGGLVQAGGSLRLSCAASGSIFVNNAMGWYRQAPGKERELVAAISASGGSTYYADSVKGRFTISRDNAKNTVYLQMNSLKPEDTAVYYCAADQDVYPYEYWGQGTQVTVSS
B2: ZF5.3-2D9 (cell-permeant nanobody) (other)
chain: B1 VHH with V102G
B3: Nanobody 2D9 (2D9_V102G) (VHH)
VHH: B1 VHH with V102G
B4: Nanobody 2D9_W108L (VHH)
VHH: B1 VHH with W108L
B5: BCL11A extended zinc finger domain (exZnF23) (domain or fragment)
chain: PPVKSKSCEFCGKTFKFQSNLVVHRRSHTGEKPYKCNLCDHACTQASKLKRHMKTHMHKSSPMTVKSDDGLSTASSPEPGTSDLVGSASSALKSVVAKFKSENDPNLIPENGD

Numbering of substitutions follows the chain as printed. Where two headings read alike, the source gives them in different places.

Assay [1] has as its target B5. Put plainly: MST.
For assay [2], the target named is T1, BCL11A ZnF23 zinc finger domain.
T1 chain: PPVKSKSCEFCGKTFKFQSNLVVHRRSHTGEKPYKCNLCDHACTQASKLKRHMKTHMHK
Put plainly: MST.

For assay [3], the target named is B5. Put plainly: MST.
For assay [4], the target named is B5.

Consider B1, for which the values for the Kd in assay [1] and in assay [2] were 1260 nM and 32900 nM, respectively.
B2 returned a Kd in assay [3] of 674 nM.
Turning to B3, the Kd in [3] was 320 nM; in [4], 343 nM.
Turning to B4, binding in assay [4] was characterised by a dissociation constant (Kd) of 23.4 nM.
Turning to B5, the dissociation constant (Kd) worked out at 224 nM in the assay with Q100L; 75.2 nM with A97V; 56.5 nM in the assay with W108R; 1460 nM with L81F; 331 nM with V102D.

What is called Kd is the free concentration of one partner at which half of the binding sites on the other are occupied at equilibrium, for simple one-to-one binding. Read a high Kd as a looser complex.

Values taken from article PMC9801508 (2022).
